Test system: Arabidopsis thaliana T1 plants
Test: Topramezone tolerance of transgenic Arabidopsis thaliana T1 plants (pesticide damage grade by bleached leaf area, score, resistance evaluation)
Type: in vivo
Details: HPPDs from ecotypes of Triticum aestivum; for Classification and statistics of pesticide damage grade: Grade 0 / Classification and statistics of pesticide damage grade: Grade 1 / Classification and statistics of pesticide damage grade: Grade 2 / Classification and statistics of pesticide damage grade: Grade 3: number of plants
Method in brief: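 Herbicide tolerance was judged per plant on a bleaching scale (grade 0 no bleaching to grade 3 fully bleached) 7 DAT. Topramezone doses were 0, 25, 50 and 100 g ai/ha on 18-day-old T1 and wild-type plants.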

Row | Molecule | Resistance evaluation (topramezone 25 g ai/ha (1x)) | Scores (topramezone 25 g ai/ha (1x)) | Classification and statistics of pesticide damage grade: Grade 0 (topramezone 25 g ai/ha (1x)) | Classification and statistics of pesticide damage grade: Grade 1 (topramezone 25 g ai/ha (1x)) | Classification and statistics of pesticide damage grade: Grade 2 (topramezone 25 g ai/ha (1x)) | Classification and statistics of pesticide damage grade: Grade 3 (topramezone 25 g ai/ha (1x)) | Resistance evaluation (topramezone 100 g ai/ha (4x)) | Scores (topramezone 100 g ai/ha (4x)) | Classification and statistics of pesticide damage grade: Grade 0 (topramezone 100 g ai/ha (4x)) | Classification and statistics of pesticide damage grade: Grade 1 (topramezone 100 g ai/ha (4x)) | Classification and statistics of pesticide damage grade: Grade 2 (topramezone 100 g ai/ha (4x)) | Classification and statistics of pesticide damage grade: Grade 3 (topramezone 100 g ai/ha (4x))
1 | TaHPPD5-02: native HPPD of Triticum aestivum ecotype 5, UniProt A0A3B6NNK0, SEQ ID NO: 201 (protein, listed as Triticum aestivum, TaHPPD5 Amino Acid Sequence) MPPTPTTPAATGAAAVTPEHARPRRMVRFNPRSDRFHTLAFHHVEFWCADAASAAGRFAFALGAPLAARSDLSTGNSVHASQLLRSGNLAFLFTAPYANGCDAATASLPSFSADAARQFSADHGLAVRSIALRVADAAEAFRASVDGGARPAFSPVDLGRGFGFAEVELYGDVVLRFVSHPDGRDVPFLPGFEGVSNPDAVDYGLTRFDHVVGNVPELAPAAAYVAGFTGFHEFAEFTTEDVGTAESGLNSMVLANNSEGVLLPLNEPVHGTKRRSQIQTFLEHHGGSGVQHIAVASSDVLRTLREMRARSAMGGFDFLPPPLPKYYEGVRRIAGDVLSEAQIKECQELGVLVDRDDQGVLLQIFTKPVGDRPTLFLEMIQRIGCMEKDELFKSIEDYEKSLEAKQSAAVQGS | non-resistant (non-resistant plants (scores 68-100)) | 83 | 0 | 0 | 8 | 8 | non-resistant (non-resistant plants (scores 68-100)) | 96 | 0 | 0 | 2 | 14
2 | TaHPPD5m-F372A-02: Triticum aestivum ecotype 5 HPPD mutant F372A, SEQ ID NO: 204 (protein, TaHPPD5m-F372A Amino Acid Sequence) MPPTPTTPAATGAAAVTPEHARPRRMVRFNPRSDRFHTLAFHHVEFWCADAASAAGRFAFALGAPLAARSDLSTGNSVHASQLLRSGNLAFLFTAPYANGCDAATASLPSFSADAARQFSADHGLAVRSIALRVADAAEAFRASVDGGARPAFSPVDLGRGFGFAEVELYGDVVLRFVSHPDGRDVPFLPGFEGVSNPDAVDYGLTRFDHVVGNVPELAPAAAYVAGFTGFHEFAEFTTEDVGTAESGLNSMVLANNSEGVLLPLNEPVHGTKRRSQIQTFLEHHGGSGVQHIAVASSDVLRTLREMRARSAMGGFDFLPPPLPKYYEGVRRIAGDVLSEAQIKECQELGVLVDRDDQGVLLQIATKPVGDRPTLFLEMIQRIGCMEKDELFKSIEDYEKSLEAKQSAAVQGS | highly resistant (highly resistant plants (scores 0-15)) | 0 | 16 | 0 | 0 | 0 | moderately resistant (moderately resistant plants (scores 16-33)) | 23 | 6 | 9 | 1 | 0
3 | TaHPPD7-02: native HPPD of Triticum aestivum ecotype 7, UniProt A7WK82, SEQ ID NO: 213 (protein, listed as Triticum aestivum, TaHPPD7 Amino Acid Sequence) MPPTPTTPAATGAAAAAAVTPEHARPRRMVRFNPRSDRFHTLAFHHVEFWCADAASAAGRFAFALGAPLAARSDLSTGNSVHASQLLRSGNLAFLFTAPYANGCDAATASLPSFSADAARRFSADHGLAVRSIALRVADAAEAFRASVDGGARPAFSPVDLGRGFGFAEVELYGDVVLRFVSHPDGTDVPFLPGFEGVSNPDAVDYGLTRFDHVVGNVPELAPAAAYVAGFTGFHEFAEFTTEDVGTAESGLNSMVLANNSEGVLLPLNEPVHGTKRRSQIQTFLEHHGGPGVQHIAVASSDVLRTLREMRARSAMGGFDFLPPPLPKYYEGVRRIAGDVLSEAQIKECQELGVLVDRDDQGVLLQIFTKPVGDRPTCSWR | non-resistant (non-resistant plants (scores 68-100)) | 100 | 0 | 0 | 0 | 16 | non-resistant (non-resistant plants (scores 68-100)) | 100 | 0 | 0 | 0 | 16
4 | TaHPPD7m-F372A-02: Triticum aestivum ecotype 7 HPPD mutant F372A, SEQ ID NO: 216 (protein, TaHPPD7m-F372A Amino Acid Sequence) MPPTPTTPAATGAAAAAAVTPEHARPRRMVRFNPRSDRFHTLAFHHVEFWCADAASAAGRFAFALGAPLAARSDLSTGNSVHASQLLRSGNLAFLFTAPYANGCDAATASLPSFSADAARRFSADHGLAVRSIALRVADAAEAFRASVDGGARPAFSPVDLGRGFGFAEVELYGDVVLRFVSHPDGTDVPFLPGFEGVSNPDAVDYGLTRFDHVVGNVPELAPAAAYVAGFTGFHEFAEFTTEDVGTAESGLNSMVLANNSEGVLLPLNEPVHGTKRRSQIQTFLEHHGGPGVQHIAVASSDVLRTLREMRARSAMGGFDFLPPPLPKYYEGVRRIAGDVLSEAQIKECQELGVLVDRDDQGVLLQIATKPVGDRPTCSWR | highly resistant (highly resistant plants (scores 0-15)) | 8 | 12 | 4 | 0 | 0 | moderately resistant (moderately resistant plants (scores 16-33)) | 21 | 6 | 10 | 0 | 0
5 | TaHPPD6-02: native HPPD of Triticum aestivum ecotype 6, UniProt A0A3B5YPS5, SEQ ID NO: 207 (protein, listed as Triticum aestivum, TaHPPD6 Amino Acid Sequence) MVRFNPGSDRFHTLAFHHIEFWCTDAASADGRFAFSLGAPLAARSDLSTGNSTHASQLLRPGSLAFLFTAPYANGCIFSVDAARRFFADHGLAVRSVALRVADAAKAFRASVDGGARPAFAPVDLGRGFGFAEVKLYGDVVLRFVSHPDGTDVPFLPGLFEGVSNPGAVHYGLTRFDHIVGNVPELAPAAAYVAGLTGFHEFAEFTTEDVGTAQSGLNSVVLANTSEGVPLLLNEPVHGTKRRRQIQTFLEHHGGPGVQHIAVASSEVFRTLREMHARSSMGGFDFLPPPLPKYYEGVRRLAGDVLSEAQIKECQELGVLVNRDDQGVLLQIFTKPVGDRPTFFLEMIQRIGCMEKDERGEEYQKGGCGGFGKGNISELFKSIEDYEKSLEAKQSAAVQGSYI | non-resistant (non-resistant plants (scores 68-100)) | 88 | 0 | 0 | 6 | 10 | non-resistant (non-resistant plants (scores 68-100)) | 96 | 0 | 0 | 2 | 14
6 | TaHPPD6m-F372A-02: Triticum aestivum ecotype 6 HPPD mutant F372A, SEQ ID NO: 210 (protein, TaHPPD6m-F372A Amino Acid Sequence) MVRFNPGSDRFHTLAFHHIEFWCTDAASADGRFAFSLGAPLAARSDLSTGNSTHASQLLRPGSLAFLFTAPYANGCIFSVDAARRFFADHGLAVRSVALRVADAAKAFRASVDGGARPAFAPVDLGRGFGFAEVKLYGDVVLRFVSHPDGTDVPFLPGLFEGVSNPGAVHYGLTRFDHIVGNVPELAPAAAYVAGLTGFHEFAEFTTEDVGTAQSGLNSVVLANTSEGVPLLLNEPVHGTKRRRQIQTFLEHHGGPGVQHIAVASSEVFRTLREMHARSSMGGFDFLPPPLPKYYEGVRRLAGDVLSEAQIKECQELGVLVNRDDQGVLLQIATKPVGDRPTFFLEMIQRIGCMEKDERGEEYQKGGCGGFGKGNISELFKSIEDYEKSLEAKQSAAVQGSYI | highly resistant (highly resistant plants (scores 0-15)) | 0 | 16 | 0 | 0 | 0 | highly resistant (highly resistant plants (scores 0-15)) | 2 | 15 | 1 | 0 | 0
